The sequences below were run on Escherichia coli TOP10 (assay: shrunken log2 fold change of peptide-encoding DNA abundance (4.5 h post-induction vs induction); higher = less antimicrobial activity (less host growth inhibition)). Details: time post-induction: 4.5 h; library: site-saturation at positions 5, 18, 19, 20.
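Further: peptides expressed intracellularly from a pBAD plasmid library in pooled LB shake-flask culture, induced with 0.3% L-arabinose, DNA abundance read by NGS, three biological replicates, DESeq2 with apeglm shrinkage.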

Sequence	shrunken log2 fold change
RRIRFRPPRLPRPRPRPYGKPRP	-0.514
RRIRARPPRLPRPRPRPSMRPRP	1.03
RRIRTRPPRLPRPRPRPGLLPRP	0.0639
RRIRHRPPRLPRPRPRPRDMPRP	0.137
RRIRCRPPRLPRPRPRPFWMPRP	-0.176
RRIRPRPPRLPRPRPRPIRPPRP	0.184
RRIRVRPPRLPRPRPRPIWSPRP	0.0334
RRIRWRPPRLPRPRPRPWMIPRP	-0.0414
RRIRCRPPRLPRPRPRPPMMPRP	-0.0549
RRIRTRPPRLPRPRPRPDGPPRP	0.126
RRIRNRPPRLPRPRPRPCASPRP	-0.106
RRIRERPPRLPRPRPRPMHDPRP	-0.286
RRIRQRPPRLPRPRPRPGSLPRP	0.143
RRIRERPPRLPRPRPRPSRDPRP	-0.12
RRIRERPPRLPRPRPRPPRIPRP	-0.453
RRIRRRPPRLPRPRPRPYDHPRP	-0.149
RRIRFRPPRLPRPRPRPEKFPRP	0.012
RRIRQRPPRLPRPRPRPYHIPRP	0.0735
RRIRYRPPRLPRPRPRPAHHPRP	-0.602
RRIRKRPPRLPRPRPRPEEMPRP	-0.000157

Sequence	shrunken log2 fold change
RRIRPRPPRLPRPRPRPAWGPRP	0.503
RRIRTRPPRLPRPRPRPQHSPRP	-0.183
RRIRGRPPRLPRPRPRPCMDPRP	0.714
RRIRERPPRLPRPRPRPFQMPRP	-0.112
RRIRGRPPRLPRPRPRPKNRPRP	0.368
RRIRMRPPRLPRPRPRPCLQPRP	-0.0178
RRIRRRPPRLPRPRPRPVWSPRP	-0.103
RRIRWRPPRLPRPRPRPDQSPRP	0.0237
RRIRWRPPRLPRPRPRPLRYPRP	-0.0913
RRIRVRPPRLPRPRPRPRESPRP	0.259
RRIRNRPPRLPRPRPRPKKCPRP	-0.209
RRIRHRPPRLPRPRPRPAWVPRP	0.15
RRIRIRPPRLPRPRPRPECPPRP	-0.0846
RRIRRRPPRLPRPRPRPFRPPRP	0.317
RRIRWRPPRLPRPRPRPYAQPRP	-0.189
RRIRRRPPRLPRPRPRPSGAPRP	0.536
RRIRRRPPRLPRPRPRPSIWPRP	0.032
RRIRKRPPRLPRPRPRPCGYPRP	0.25
RRIRERPPRLPRPRPRPFAIPRP	-0.122
RRIRGRPPRLPRPRPRPMQSPRP	0.47

Sequence	shrunken log2 fold change
RRIRQRPPRLPRPRPRPTIKPRP	-0.374
RRIRNRPPRLPRPRPRPLQNPRP	0.176
RRIRIRPPRLPRPRPRPNHWPRP	0.0534
RRIRPRPPRLPRPRPRPYKVPRP	-0.338
RRIRHRPPRLPRPRPRPLDGPRP	-0.34
RRIRGRPPRLPRPRPRPFWKPRP	0.0889
RRIRERPPRLPRPRPRPPPGPRP	0.418
RRIRERPPRLPRPRPRPPMHPRP	-0.171
RRIRRRPPRLPRPRPRPQVPPRP	0.11
RRIRSRPPRLPRPRPRPLKHPRP	-0.39
RRIRPRPPRLPRPRPRPTLFPRP	0.2
RRIRGRPPRLPRPRPRPPAKPRP	1.48
RRIRNRPPRLPRPRPRPGVTPRP	0.0223
RRIRTRPPRLPRPRPRPKHPPRP	-0.317
RRIRERPPRLPRPRPRPNFKPRP	-0.181
RRIRIRPPRLPRPRPRPNISPRP	-0.199
RRIRHRPPRLPRPRPRPSQPPRP	-0.184
RRIRHRPPRLPRPRPRPKLRPRP	-0.382
RRIRDRPPRLPRPRPRPCPVPRP	-0.426
RRIRVRPPRLPRPRPRPMHRPRP	-0.0728

Source: the supplement of paper PMC9112550, “Optimization of the antimicrobial peptide Bac7 by deep mutational scanning” (BMC Biology, 2022)
